Values belong to the binder of their own block, whether it stands above or below them.
Legend:
Assay in all cases: cell-based or functional assay
ADAMTS5 = target: T1, ADAMTS5 (human, UniProt Q9UNA0 262-622, limits assumed)
T1 sequence (looked up): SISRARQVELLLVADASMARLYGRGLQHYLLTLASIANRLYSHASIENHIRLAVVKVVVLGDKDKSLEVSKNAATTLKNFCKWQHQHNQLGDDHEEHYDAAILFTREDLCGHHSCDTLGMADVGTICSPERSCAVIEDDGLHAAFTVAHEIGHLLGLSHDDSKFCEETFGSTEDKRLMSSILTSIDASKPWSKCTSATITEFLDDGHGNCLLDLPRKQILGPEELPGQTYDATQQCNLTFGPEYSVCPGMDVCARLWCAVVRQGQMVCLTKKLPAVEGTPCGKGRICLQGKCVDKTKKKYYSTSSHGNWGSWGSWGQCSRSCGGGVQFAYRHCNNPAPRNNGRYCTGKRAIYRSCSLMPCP

MMP1 = target: T2, MMP1 (human, UniProt P03956 100-469, limits assumed)
T2 sequence (looked up): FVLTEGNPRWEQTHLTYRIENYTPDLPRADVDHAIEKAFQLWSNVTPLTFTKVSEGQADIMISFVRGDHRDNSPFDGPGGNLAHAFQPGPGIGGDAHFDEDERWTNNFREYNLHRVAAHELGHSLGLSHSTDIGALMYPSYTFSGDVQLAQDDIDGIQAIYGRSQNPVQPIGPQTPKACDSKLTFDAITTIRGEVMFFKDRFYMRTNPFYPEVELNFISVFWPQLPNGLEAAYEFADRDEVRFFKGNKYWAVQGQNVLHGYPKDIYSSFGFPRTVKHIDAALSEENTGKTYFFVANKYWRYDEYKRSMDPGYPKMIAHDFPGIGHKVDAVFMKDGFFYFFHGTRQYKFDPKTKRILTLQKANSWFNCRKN

MMP8 = MMP8 (human, UniProt P22894 101-467, limits assumed)
Sequence of MMP8 (P22894 101-467 limits assumed): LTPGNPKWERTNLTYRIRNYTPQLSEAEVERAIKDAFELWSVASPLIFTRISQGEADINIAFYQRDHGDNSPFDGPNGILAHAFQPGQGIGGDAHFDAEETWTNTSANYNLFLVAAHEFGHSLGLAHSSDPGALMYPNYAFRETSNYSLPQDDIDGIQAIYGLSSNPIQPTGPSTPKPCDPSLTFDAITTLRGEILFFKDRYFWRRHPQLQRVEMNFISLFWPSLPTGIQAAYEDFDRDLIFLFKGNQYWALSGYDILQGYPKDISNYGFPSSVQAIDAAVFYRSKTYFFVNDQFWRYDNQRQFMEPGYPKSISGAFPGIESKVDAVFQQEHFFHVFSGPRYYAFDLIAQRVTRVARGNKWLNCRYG

MMP13 = MMP13 (human, UniProt P45452 104-471, limits assumed)
MMP2 = target: T3, MMP2 (human, UniProt P08253 110-660, limits assumed)
T3 sequence (looked up): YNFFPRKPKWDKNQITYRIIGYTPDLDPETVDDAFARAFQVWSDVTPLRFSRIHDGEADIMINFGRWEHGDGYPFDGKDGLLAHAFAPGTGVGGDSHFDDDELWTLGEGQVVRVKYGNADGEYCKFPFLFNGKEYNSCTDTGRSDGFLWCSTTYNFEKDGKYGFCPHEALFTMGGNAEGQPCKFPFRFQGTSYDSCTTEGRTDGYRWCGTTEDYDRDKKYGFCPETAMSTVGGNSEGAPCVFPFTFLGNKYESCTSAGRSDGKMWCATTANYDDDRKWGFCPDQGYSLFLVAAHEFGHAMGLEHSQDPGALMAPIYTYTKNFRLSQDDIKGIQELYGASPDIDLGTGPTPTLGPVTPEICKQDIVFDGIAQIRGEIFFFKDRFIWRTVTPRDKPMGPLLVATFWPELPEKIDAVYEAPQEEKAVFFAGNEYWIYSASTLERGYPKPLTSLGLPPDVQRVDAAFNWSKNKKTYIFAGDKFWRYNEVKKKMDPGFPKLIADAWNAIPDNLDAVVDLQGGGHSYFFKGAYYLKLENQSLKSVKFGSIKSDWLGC

MMP9 = MMP9 (human, UniProt P14780 107-707, limits assumed)
Sequence of MMP9 (P14780 107-707 limits assumed): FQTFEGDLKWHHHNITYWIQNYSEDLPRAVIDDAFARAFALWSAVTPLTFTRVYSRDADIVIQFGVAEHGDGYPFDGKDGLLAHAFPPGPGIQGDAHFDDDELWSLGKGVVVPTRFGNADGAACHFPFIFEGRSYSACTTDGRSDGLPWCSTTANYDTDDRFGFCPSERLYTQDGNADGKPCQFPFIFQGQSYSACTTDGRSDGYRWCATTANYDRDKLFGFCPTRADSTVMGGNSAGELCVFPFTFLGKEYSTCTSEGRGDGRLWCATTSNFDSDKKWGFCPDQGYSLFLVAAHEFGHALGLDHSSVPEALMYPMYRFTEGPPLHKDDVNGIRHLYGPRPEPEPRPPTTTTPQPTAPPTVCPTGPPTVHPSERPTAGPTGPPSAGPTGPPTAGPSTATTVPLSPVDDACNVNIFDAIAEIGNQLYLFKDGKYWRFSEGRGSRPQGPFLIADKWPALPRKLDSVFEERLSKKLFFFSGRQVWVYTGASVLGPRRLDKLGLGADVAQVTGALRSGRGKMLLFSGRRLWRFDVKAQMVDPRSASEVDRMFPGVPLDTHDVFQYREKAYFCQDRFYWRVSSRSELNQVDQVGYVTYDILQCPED

MMP3 = MMP3 (human, UniProt P08254 100-477, limits assumed)
Sequence of MMP3 (P08254 100-477 limits assumed): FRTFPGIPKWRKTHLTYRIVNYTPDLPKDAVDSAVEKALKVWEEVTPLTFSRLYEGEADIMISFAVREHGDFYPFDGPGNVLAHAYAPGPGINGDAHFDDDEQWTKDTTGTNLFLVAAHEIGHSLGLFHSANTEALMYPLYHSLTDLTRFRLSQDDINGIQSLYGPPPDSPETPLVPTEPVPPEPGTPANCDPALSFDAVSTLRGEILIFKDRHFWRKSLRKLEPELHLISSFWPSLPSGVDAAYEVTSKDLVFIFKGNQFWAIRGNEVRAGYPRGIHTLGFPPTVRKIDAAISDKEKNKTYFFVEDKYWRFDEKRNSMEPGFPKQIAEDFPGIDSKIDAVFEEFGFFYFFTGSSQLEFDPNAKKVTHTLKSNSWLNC

Elastase = target: Elastase
Cathepsin G = target: T4, Cathepsin G (UniProt P08311 21-244)
T4 sequence (looked up): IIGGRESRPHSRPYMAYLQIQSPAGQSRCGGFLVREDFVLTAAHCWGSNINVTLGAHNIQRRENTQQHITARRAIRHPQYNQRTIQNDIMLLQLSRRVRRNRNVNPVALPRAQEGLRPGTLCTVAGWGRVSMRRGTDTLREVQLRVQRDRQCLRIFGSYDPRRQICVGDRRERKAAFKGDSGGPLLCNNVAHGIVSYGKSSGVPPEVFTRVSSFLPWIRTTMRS

MMP7 = target: T5, MMP7 (UniProt P09237 95-267, limits assumed)
T5 sequence (looked up): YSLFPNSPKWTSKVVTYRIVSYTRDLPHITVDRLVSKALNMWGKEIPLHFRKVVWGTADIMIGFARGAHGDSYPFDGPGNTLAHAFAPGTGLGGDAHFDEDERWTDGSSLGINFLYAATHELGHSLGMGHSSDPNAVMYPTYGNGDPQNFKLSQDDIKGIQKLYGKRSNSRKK

Protease Inhibition (% of WT) (ADAMTS5): 114 % of WT
Protease Inhibition (% of WT) (MMP1): 109 % of WT
Protease Inhibition (% of WT) (MMP8): 43 % of WT
Protease Inhibition (% of WT) (MMP13): 54 % of WT
Protease Inhibition (% of WT) (MMP2): 16 % of WT
Protease Inhibition (% of WT) (MMP9): 13 % of WT
Protease Inhibition (% of WT) (MMP3): 33 % of WT
Protease Inhibition (% of WT) (Elastase): 79 % of WT
Protease Inhibition (% of WT) (Cathepsin G): 161 % of WT
Protease Inhibition (% of WT) (MMP7): 138 % of WT
B1: Variant A2M, bait region SEQ ID NO 27 (other)
chain: SVSGKPQYMVLVPSLLHTETTEKGCVLLSYLNETVTVSASLESVRGNRSLFTDLEAENDVLHCVAFAVPKSSSNEEVMFLTVQVKGPTQEFKKRTTVMVKNEDSLVFVQTDKSIYKPGQTVKFRVVSMDENFHPLNELIPLVYIQDPKGNRIAQWQSFQLEGGLKQFSFPLSSEPFQGSYKVVVQKKSGGRTEHPFTVEEFVLPKFEVQVTVPKIITILEEEMNVSVCGLYTYGKPVPGHVTVSICRKYSDASDCHGEDSQAFCEKFSGQLNSHGCFYQQVKTKVFQLKRKEYEMKLHTEAQIQEEGTVVELTGRQSSEITRTITKLSFVKVDSHFRQGIPFFGQVRLVDGKGVPIPNKVIFIRGNEANYYSNATTDEHGLVQFSINTTNVMGTSLTVRVNYKDRSPCYGYQWVSEEHEEAHHTAYLVFSPSKSFVHLEPMSHELPCGHTQTVQAHYILNGGTLLGLKKLSFYYLIMAKGGIVRTGTHGLLVKQEDMKGHFSISIPVKSDIAPVARLLIYAVLPTGDVIGDSAKYDVENCLANKVDLSFSPSQSLPASHAHLRVTAAPQSVCALRAVDQSVLLMKPDAELSASSVYNLLPEKDLTGFPGPLNDQDDEDCINRHNVYINGITYTPVSSTNEKDMYSFLEDMGLKAFTNSKIRKPKMCPQLEQYEMHGPEGEGEGEGIPENFYGVSEDLYTASELEGRGSVEEPHTKLRKYFPETWIWDLVVVNSAGVAEVGVTVPDTITEWKAGAFCLSEDAGLGISSTASLRAFQPFFVELTMPYSVIRGEAFTLKATVLNYLPKCIRVSVQLEASPAFLAVPVEKEQAPHCICANGRQTVSWAVTPKSLGNVNFTVSAEALESQELCGTEVPSVPEHGRKDTVIKPLLVEPEGLEKETTFNSLLCPSGGEVSEELSLKLPPNVVEESARASVSVLGDILGSAMQNTQNLLQMPYGCGEQNMVLFAPNIYVLDYLNETQQLTPEIKSKAIGYLNTGYQRQLNYKHYDGSYSTFGERYGRNQGNTWLTAFVLKTFAQARAYIFIDEAHITQALIWLSQRQKDNGCFRSSGSLLNNAIKGGVEDEVTLSAYITIALLEIPLTVTHPVVRNALFCLESAWKTAQEGDHGSHVYTKALLAYAFALAGNQDKRKEVLKSLNEEAVKKDNSVHWERPQKPKAPVGHFYEPQAPSAEVEMTSYVLLAYLTAQPAPTSEDLTSATNIVKWITKQQNAQGGFSSTQDTVVALHALSKYGAATFTRTGKAAQVTIQSSGTFSSKFQVDNNNRLLLQQVSLPELPGEYSMKVTGEGCVYLQTSLKYNILPEKEEFPFALGVQTLPQTCDEPKAHTSFQISLSVSYTGSRSASNMAIVDVKMVSGFIPLKPTVKMLERSNHVSRTEVSSNHVLIYLDKVSNQTLSLFFTVLQDVPVRDLKPAIVKVYDYYETDEFAIAEYNAPCSKDLGNADYKDDDDKGASHHHHHH

Protease Inhibition (% of WT) (ADAMTS5): 85 % of WT
Protease Inhibition (% of WT) (MMP1): 87 % of WT
Protease Inhibition (% of WT) (MMP8): 29 % of WT
Protease Inhibition (% of WT) (MMP13): 70 % of WT
Protease Inhibition (% of WT) (MMP2): 16 % of WT
Protease Inhibition (% of WT) (MMP9): 5 % of WT
Protease Inhibition (% of WT) (MMP3): 101 % of WT
Protease Inhibition (% of WT) (Elastase): 98 % of WT
Protease Inhibition (% of WT) (Cathepsin G): 84 % of WT
Protease Inhibition (% of WT) (MMP7): 104 % of WT
B2: Variant A2M, bait region SEQ ID NO 29 (other)
chain: SVSGKPQYMVLVPSLLHTETTEKGCVLLSYLNETVTVSASLESVRGNRSLFTDLEAENDVLHCVAFAVPKSSSNEEVMFLTVQVKGPTQEFKKRTTVMVKNEDSLVFVQTDKSIYKPGQTVKFRVVSMDENFHPLNELIPLVYIQDPKGNRIAQWQSFQLEGGLKQFSFPLSSEPFQGSYKVVVQKKSGGRTEHPFTVEEFVLPKFEVQVTVPKIITILEEEMNVSVCGLYTYGKPVPGHVTVSICRKYSDASDCHGEDSQAFCEKFSGQLNSHGCFYQQVKTKVFQLKRKEYEMKLHTEAQIQEEGTVVELTGRQSSEITRTITKLSFVKVDSHFRQGIPFFGQVRLVDGKGVPIPNKVIFIRGNEANYYSNATTDEHGLVQFSINTTNVMGTSLTVRVNYKDRSPCYGYQWVSEEHEEAHHTAYLVFSPSKSFVHLEPMSHELPCGHTQTVQAHYILNGGTLLGLKKLSFYYLIMAKGGIVRTGTHGLLVKQEDMKGHFSISIPVKSDIAPVARLLIYAVLPTGDVIGDSAKYDVENCLANKVDLSFSPSQSLPASHAHLRVTAAPQSVCALRAVDQSVLLMKPDAELSASSVYNLLPEKDLTGFPGPLNDQDDEDCINRHNVYINGITYTPVSSTNEKDMYSFLEDMGLKAFTNSKIRKPKMCPQLEQPEGEGEGPRYLTAIPENFFGVSEDLVVQISELEGRGSVEEPHTKLRKYFPETWIWDLVVVNSAGVAEVGVTVPDTITEWKAGAFCLSEDAGLGISSTASLRAFQPFFVELTMPYSVIRGEAFTLKATVLNYLPKCIRVSVQLEASPAFLAVPVEKEQAPHCICANGRQTVSWAVTPKSLGNVNFTVSAEALESQELCGTEVPSVPEHGRKDTVIKPLLVEPEGLEKETTFNSLLCPSGGEVSEELSLKLPPNVVEESARASVSVLGDILGSAMQNTQNLLQMPYGCGEQNMVLFAPNIYVLDYLNETQQLTPEIKSKAIGYLNTGYQRQLNYKHYDGSYSTFGERYGRNQGNTWLTAFVLKTFAQARAYIFIDEAHITQALIWLSQRQKDNGCFRSSGSLLNNAIKGGVEDEVTLSAYITIALLEIPLTVTHPVVRNALFCLESAWKTAQEGDHGSHVYTKALLAYAFALAGNQDKRKEVLKSLNEEAVKKDNSVHWERPQKPKAPVGHFYEPQAPSAEVEMTSYVLLAYLTAQPAPTSEDLTSATNIVKWITKQQNAQGGFSSTQDTVVALHALSKYGAATFTRTGKAAQVTIQSSGTFSSKFQVDNNNRLLLQQVSLPELPGEYSMKVTGEGCVYLQTSLKYNILPEKEEFPFALGVQTLPQTCDEPKAHTSFQISLSVSYTGSRSASNMAIVDVKMVSGFIPLKPTVKMLERSNHVSRTEVSSNHVLIYLDKVSNQTLSLFFTVLQDVPVRDLKPAIVKVYDYYETDEFAIAEYNAPCSKDLGNADYKDDDDKGASHHHHHH

Source: patent US20230250154A1 (CYTONICS, published 2023)
